Measurements: US20150045540A1 (published 2015)

T1: Placenta Growth Factor (PlGF), human (human, UniProt P49763 21-149)
T1 chain: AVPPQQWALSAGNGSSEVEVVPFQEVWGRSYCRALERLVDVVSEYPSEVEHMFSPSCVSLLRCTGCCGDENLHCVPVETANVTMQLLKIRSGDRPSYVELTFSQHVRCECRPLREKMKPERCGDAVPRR

B1: HC 4/SLC 15 (antibody)
chain 1: GQGTLVTVSSASTKQPVLHQPPAMSSALGTTIRLTCTLRNDHDIGVYSVYWYQQRPGHPPRFLLRYFSQSDKSQGPQVPPRFSGSKDVARNRGYLSISELQPEDEAMYYCAMGARSRCWPRGFQSKHNSVTHVFGSGTQLTVLSQPKATPSVTLFPPSSEELQANKATLVCLMNDFYPGILTVTWKADGTPITQGVEMTTPSKQSNNKYAASSYLSLTPEQWRSRRSYSCQVMHEGSTVEKTVAPAECS
chain 2: MSWAPVLLMLFVYCTGCGPQPVLHQPPAMSSALGTTIRLTCTLRNDHDIGVYSVYWYQQRPGHPPRFLLRYFSQSDKSQGPQVPPRFSGSKDVARNRGYLSISVTHVFGSGTQLTVLSQPKATPSVTGGGGSQVQLVQ
B2: HC 6/SLC 15 (antibody)
chain 1: GQGTLVTVSSASTKGPQPVLHQPPAMSSALGTTIRLTCTLRNDHDIGVYSVYWYQQRPGHPPRFLLRYFSQSDKSQGPQVPPRFSGSKDVARNRGYLSISELQPEDEAMYYCAMGARSRCWPRGFQSKHNSVTHVFGSGTQLTVLSQPKATPSVTLFPPSSEELQANKATLVCLMNDFYPGILTVTWKADGTPITQGVEMTTPSKQSNNKYAASSYLSLTPEQWRSRRSYSCQVMHEGSTVEKTVAPAECS
chain 2: B1 chain 2
B3: HC 2/SLC 15 (antibody)
chain 1: GQGTLVTVSSASQPVLHQPPAMSSALGTTIRLTCTLRNDHDIGVYSVYWYQQRPGHPPRFLLRYFSQSDKSQGPQVPPRFSGSKDVARNRGYLSISELQPEDEAMYYCAMGARSRCWPRGFQSKHNSVTHVFGSGTQLTVLSQPKATPSVTLFPPSSEELQANKATLVCLMNDFYPGILTVTWKADGTPITQGVEMTTPSKQSNNKYAASSYLSLTPEQWRSRRSYSCQVMHEGSTVEKTVAPAECS
chain 2: B1 chain 2
B4: HC 4/SLC 7 (antibody)
chain 1: B1 chain 1
chain 2: MSWAPVLLMLFVYCTGCGPQPVLHQPPAMSSALGTTIRLTCTLRNDHDIGVYSVYWYQQRPGHPPRFLLRYFSQSDKSQGPQVPPRFSGSKDVARNRGYLSISVTHVFGSGTQLTVLSQPKATPQVQLVQ
B5: HC 4/SLC 9 (antibody)
chain 1: B1 chain 1
chain 2: MSWAPVLLMLFVYCTGCGPQPVLHQPPAMSSALGTTIRLTCTLRNDHDIGVYSVYWYQQRPGHPPRFLLRYFSQSDKSQGPQVPPRFSGSKDVARNRGYLSISVTHVFGSGTQLTVLSQPKATPSVQVQLVQ
B6: HC 9/SLC 6 (antibody)
chain 1: GQGTLVTVSSASTKGPSVFQPVLHQPPAMSSALGTTIRLTCTLRNDHDIGVYSVYWYQQRPGHPPRFLLRYFSQSDKSQGPQVPPRFSGSKDVARNRGYLSISELQPEDEAMYYCAMGARSRCWPRGFQSKHNSVTHVFGSGTQLTVLSQPKATPSVTLFPPSSEELQANKATLVCLMNDFYPGILTVTWKADGTPITQGVEMTTPSKQSNNKYAASSYLSLTPEQWRSRRSYSCQVMHEGSTVEKTVAPAECS
chain 2: MSWAPVLLMLFVYCTGCGPQPVLHQPPAMSSALGTTIRLTCTLRNDHDIGVYSVYWYQQRPGHPPRFLLRYFSQSDKSQGPQVPPRFSGSKDVARNRGYLSISVTHVFGSGTQLTVLSQPKATQVQLVQ
B7: HC 2/SLC 2 (antibody)
chain 1: B3 chain 1
chain 2: MSWAPVLLMLFVYCTGCGPQPVLHQPPAMSSALGTTIRLTCTLRNDHDIGVYSVYWYQQRPGHPPRFLLRYFSQSDKSQGPQVPPRFSGSKDVARNRGYLSISVTHVFGSGTQLTVLSQQVQLVQ
B8: HC 10/SLC 2 (antibody)
chain 1: GQGTLVTVSSASTKGPSVFPQPVLHQPPAMSSALGTTIRLTCTLRNDHDIGVYSVYWYQQRPGHPPRFLLRYFSQSDKSQGPQVPPRFSGSKDVARNRGYLSISELQPEDEAMYYCAMGARSRCWPRGFQSKHNSVTHVFGSGTQLTVLSQPKATPSVTLFPPSSEELQANKATLVCLMNDFYPGILTVTWKADGTPITQGVEMTTPSKQSNNKYAASSYLSLTPEQWRSRRSYSCQVMHEGSTVEKTVAPAECS
chain 2: B7 chain 2
B9: HC 2/SLC 3 (antibody)
chain 1: B3 chain 1
chain 2: MSWAPVLLMLFVYCTGCGPQPVLHQPPAMSSALGTTIRLTCTLRNDHDIGVYSVYWYQQRPGHPPRFLLRYFSQSDKSQGPQVPPRFSGSKDVARNRGYLSISVTHVFGSGTQLTVLSQPQVQLVQ
B10: HC 10/SLC 9 (antibody)
chain 1: B8 chain 1
chain 2: B5 chain 2
B11: HC 5/SLC 8 (antibody)
chain 1: GQGTLVTVSSASTKGQPVLHQPPAMSSALGTTIRLTCTLRNDHDIGVYSVYWYQQRPGHPPRFLLRYFSQSDKSQGPQVPPRFSGSKDVARNRGYLSISELQPEDEAMYYCAMGARSRCWPRGFQSKHNSVTHVFGSGTQLTVLSQPKATPSVTLFPPSSEELQANKATLVCLMNDFYPGILTVTWKADGTPITQGVEMTTPSKQSNNKYAASSYLSLTPEQWRSRRSYSCQVMHEGSTVEKTVAPAECS
chain 2: MSWAPVLLMLFVYCTGCGPQPVLHQPPAMSSALGTTIRLTCTLRNDHDIGVYSVYWYQQRPGHPPRFLLRYFSQSDKSQGPQVPPRFSGSKDVARNRGYLSISVTHVFGSGTQLTVLSQPKATPSQVQLVQ
B12: HC 4/SLC 10 (antibody)
chain 1: B1 chain 1
chain 2: MSWAPVLLMLFVYCTGCGPQPVLHQPPAMSSALGTTIRLTCTLRNDHDIGVYSVYWYQQRPGHPPRFLLRYFSQSDKSQGPQVPPRFSGSKDVARNRGYLSISVTHVFGSGTQLTVLSQPKATPSVTQVQLVQ
B13: HC 3/SLC 10 (antibody)
chain 1: GQGTLVTVSSASTQPVLHQPPAMSSALGTTIRLTCTLRNDHDIGVYSVYWYQQRPGHPPRFLLRYFSQSDKSQGPQVPPRFSGSKDVARNRGYLSISELQPEDEAMYYCAMGARSRCWPRGFQSKHNSVTHVFGSGTQLTVLSQPKATPSVTLFPPSSEELQANKATLVCLMNDFYPGILTVTWKADGTPITQGVEMTTPSKQSNNKYAASSYLSLTPEQWRSRRSYSCQVMHEGSTVEKTVAPAECS
chain 2: B12 chain 2
B14: HC 6/SLC 10 (antibody)
chain 1: B2 chain 1
chain 2: B12 chain 2
B15: HC 8/SLC 10 (antibody)
chain 1: GQGTLVTVSSASTKGPSVQPVLHQPPAMSSALGTTIRLTCTLRNDHDIGVYSVYWYQQRPGHPPRFLLRYFSQSDKSQGPQVPPRFSGSKDVARNRGYLSISELQPEDEAMYYCAMGARSRCWPRGFQSKHNSVTHVFGSGTQLTVLSQPKATPSVTLFPPSSEELQANKATLVCLMNDFYPGILTVTWKADGTPITQGVEMTTPSKQSNNKYAASSYLSLTPEQWRSRRSYSCQVMHEGSTVEKTVAPAECS
chain 2: B12 chain 2

Target: T1, Placenta Growth Factor (PlGF), human
Test: ELISA

| EC50 [nM] | Binder |
| --- | --- |
| 0.057 | B1 |
| 0.046 | B2 |
| 0.053 | B3 |
| 0.161 | B4 |
| 0.101 | B5 |
| 0.096 | B6 |
| 0.049 | B7 |
| 0.166 | B8 |
| 0.046 | B9 |
| 0.039 | B10 |
| 0.115 | B11 |

The binders below were run against Hepatocyte Growth Factor (HGF), human (human, UniProt P14210 32-728) (assay: ELISA).
Hepatocyte Growth Factor (HGF), human, sequence (P14210 32-728): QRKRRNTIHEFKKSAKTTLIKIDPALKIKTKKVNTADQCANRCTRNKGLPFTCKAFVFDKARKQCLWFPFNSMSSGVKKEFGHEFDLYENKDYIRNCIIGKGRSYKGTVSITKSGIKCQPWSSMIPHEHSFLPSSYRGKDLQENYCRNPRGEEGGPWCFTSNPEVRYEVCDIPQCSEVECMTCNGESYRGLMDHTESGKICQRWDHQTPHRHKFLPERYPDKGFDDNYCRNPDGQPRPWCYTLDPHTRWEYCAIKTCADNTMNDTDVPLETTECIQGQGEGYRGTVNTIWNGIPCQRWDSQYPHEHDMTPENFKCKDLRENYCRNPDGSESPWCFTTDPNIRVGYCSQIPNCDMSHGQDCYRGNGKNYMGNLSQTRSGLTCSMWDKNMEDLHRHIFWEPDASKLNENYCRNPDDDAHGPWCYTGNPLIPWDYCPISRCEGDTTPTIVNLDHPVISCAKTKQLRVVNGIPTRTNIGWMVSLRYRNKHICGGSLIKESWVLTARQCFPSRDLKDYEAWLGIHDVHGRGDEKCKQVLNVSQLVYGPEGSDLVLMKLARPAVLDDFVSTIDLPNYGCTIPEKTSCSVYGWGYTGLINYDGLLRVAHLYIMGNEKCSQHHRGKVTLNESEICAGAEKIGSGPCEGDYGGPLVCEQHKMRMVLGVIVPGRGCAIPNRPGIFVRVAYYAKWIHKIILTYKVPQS

| EC50 [nM] | Binder |
| --- | --- |
| ~0.041 | B1 |
| 0.05 | B2 |
| 0.041 | B3 |
| 0.059 | B4 |
| 0.045 | B5 |
| ~0.041 | B12 |
| 0.059 | B6 |
| 0.051 | B7 |
| 0.063 | B8 |
| 0.058 | B9 |
| 0.053 | B10 |
| 0.055 | B11 |
| ~0.041 | B13 |
| ~0.041 | B14 |
| ~0.041 | B15 |
